Data reported in PMC4536312 (Genes & Development, 2015).
Numbering of substitutions follows the chain as printed. Each block holds one binder with its values, some of them ahead of it.

Columns and labels:
[1] = target: T1, U2AF23 WT;U2AF59 fragment (Schizosaccharomyces …, UniProt Q09176;P36629 1-216;93-161, |); test: ITC
T1 sequence 1: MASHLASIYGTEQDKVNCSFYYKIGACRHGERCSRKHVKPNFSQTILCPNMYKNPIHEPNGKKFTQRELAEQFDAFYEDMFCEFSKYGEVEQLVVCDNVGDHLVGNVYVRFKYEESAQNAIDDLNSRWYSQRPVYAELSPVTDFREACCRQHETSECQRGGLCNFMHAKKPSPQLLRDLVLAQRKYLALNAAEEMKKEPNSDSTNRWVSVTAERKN
T1 sequence 2: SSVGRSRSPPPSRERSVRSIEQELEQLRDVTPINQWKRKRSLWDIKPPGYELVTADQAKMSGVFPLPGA

[2] = target: T2, U2AF23 Q151R;U2AF59 fragment (Schizosaccharomyces …, UniProt Q09176;P36629 1-216;93-161, Q151R|); test: ITC
T2 sequence 1: T1 sequence 1 with Q151R
T2 sequence 2: T1 sequence 2

[3] = target: T3, U2AF23 F20A;U2AF59 fragment (Schizosaccharomyces …, UniProt Q09176;P36629 1-216;93-161, F20A|); test: ITC
T3 sequence 1: T1 sequence 1 with F20A
T3 sequence 2: T1 sequence 2

[4] = target: T4, U2AF23 R150S;U2AF59 fragment (Schizosaccharomyces …, UniProt Q09176;P36629 1-216;93-161, R150S|); test: ITC
T4 sequence 1: T1 sequence 1 with R150S
T4 sequence 2: T1 sequence 2

[5] = target: T5, U2AF23 R35S;U2AF59 fragment (Schizosaccharomyces …, UniProt Q09176;P36629 1-216;93-161, R35S|); test: ITC
T5 sequence 1: T1 sequence 1 with R35S
T5 sequence 2: T1 sequence 2

[6] = target: T6, U2AF23 F165A;U2AF59 fragment (Schizosaccharomyces …, UniProt Q09176;P36629 1-216;93-161, F165A|); test: ITC
T6 sequence 1: T1 sequence 1 with F165A
T6 sequence 2: T1 sequence 2

[7] = target: T7, U2AF23 R28S;U2AF59 fragment (Schizosaccharomyces …, UniProt Q09176;P36629 1-216;93-161, R28S|); test: ITC
T7 sequence 1: T1 sequence 1 with R28S
T7 sequence 2: T1 sequence 2

[8] = target: T8, U2AF23 R159S;U2AF59 fragment (Schizosaccharomyces …, UniProt Q09176;P36629 1-216;93-161, R159S|); test: ITC
T8 sequence 1: T1 sequence 1 with R159S
T8 sequence 2: T1 sequence 2

[9] = target: T9, U2AF23, the small subunit of fission yeast Schizosaccharomyces pombe U2AF (Schizosaccharomyces pombe, UniProt Q09176 1-216); test: crystal structure
T9 sequence: T1 sequence 1

Binder: CUACG (ssRNA)
binding result [1]: no binding

Binder: CUGGG (ssRNA)
Kd [1]: 63 µM

Binder: CUCGG (ssRNA)
Kd [1]: 296 µM

Binder: CUAUG (ssRNA)
Kd [2]: 53 µM | binding result [1]: no binding

Binder: CUAGG (ssRNA)
binding result [3]: no binding | Kd [2]: 0.75 µM | binding result [4]: no binding | Kd [1]: 1.2 µM | binding result [5]: no binding | binding result [6]: no binding | Kd [7]: 12 µM | binding result [8]: no binding

Binder: CUUGG (ssRNA)
Kd [1]: 429 µM

Binder: UUUUUUUUUU (ssRNA) [U10]
binding result [1]: no binding

binding result [9]: binds
B1: U2AF59 fragment spanning residues 93–161 (S. pombe U2AF large subunit) (domain or fragment)
chain: T1 sequence 2
